Tested on: MS2 coat protein
Test: apparent KD of MS2 coat protein; designed switch direction (-1 OFF switch, 1 ON switch): -1; higher = weaker reporter binding
Procedure, shortened: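 For each design, the apparent KD is the median over clusters of curves fitted to normalised cluster fluorescence. Clusters held RNA switches with common flanks, transcribed on Illumina chips by stalled E. coli RNA polymerase. These were titrated with SNAP-549-labelled MS2 coat protein, doubling from 0.7 or 1.5 nM to 3 µM, without input, with 200 uM small-molecule ligand, or with an oligonucleotide input.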

[1] = input ligand: microRNA oligo, concentration not stated
[2] = Eterna round: R95, input ligand: microRNA oligo, concentration not stated
[3] = Eterna round: R95, input ligand: FMN 200 uM
[4] = Eterna round: R95, input ligand: none

Sequence | apparent KD of MS2 coat protein (input ligand: FMN 200 uM) [µM] | apparent KD of MS2 coat protein [1] [µM] | apparent KD of MS2 coat protein (input ligand: none) [µM] | apparent KD of MS2 coat protein [2] [µM] | apparent KD of MS2 coat protein [3] [µM] | apparent KD of MS2 coat protein [4] [µM]
AACGUGCAGCUUUGCUGUACGCGUACAUGAGGAUCACCCAUGUAGGAUAUGGUACGCAAAGCGUGCUAGAAGGAUAUGGAGAAA [Mat - Exclusion NG 3 - Mod of JL - D82] (Eterna round: R96, puzzle: Exclusion NG 3) | 0.0147 | 0.0115 | 0.0162 | – | – | –
AAACCACAUGAGGAUCACCCAUGUGAGGAUAUGAUACUAUGUACUUCGGUACAUAGUAUCAGAAGGCAUGUGGA [Ex1-3: 88] (puzzle: Exclusion 1) | – | – | – | 0.168 | – | –
CCGUGGUUAGGAUAUUCGAAUGAGCACAUGAGGAUCACCCAUGUCUGAAUUGACAGCCGAGAAGAAGGAACCACUC [Eternabot (L2) Solution 24] (Eterna round: R97, puzzle: Exclusion 5) | 0.0295 | – | 0.0233 | – | – | –
ACUCGACAUGAGGAUCACCCAUGUGAGGAUAUGGCCUGUAUGGCGUGAGCUGGCUAAAUCAGAAGGCGCGUGGG [salish99_ex1_r4_049] (Eterna round: R97, puzzle: Exclusion 1) | 0.222 | – | 0.194 | – | – | –
ACCGACAGAGGAUAUGCAAGUAGGAACAUGAGGAUCACCCAUGUGAUACGUGCACGUGCGGCAGAAGGCUGAUCGA [Velamaed] (Eterna round: R97, puzzle: Exclusion 5) | 0.0171 | – | 0.0154 | – | – | –
UAAUAACAAGCGAGAUCCUACAUGAGGAUCACCCAUGUGCUCGUCUUAUAAGGUACUGUGACGAUAGUCACGGUACC [Mat - Sensor, turn-off var - Eli Mod - D96] (Eterna round: R97, puzzle: Sensor, turn-off variant 1) | 0.0178 | – | 0.0182 | – | – | –
ACAGAGUCAGGAUAUCGCCGUGGCAGUCUCAACCAGCGGAACGAGAAGGGACAUGAGGAUCACCCAUGUCUGUU [Eternabot (Original) Solution 36] (Eterna round: R97, puzzle: Exclusion 4) | 0.0207 | – | 0.0186 | – | – | –
GGUGGACAUGAGGAUCACCCAUGUGAGGAUAUCGGCCGGCUAGUGGUGGCUGGCUUCUCGAGAAGGCGCAUAGU [Exclusion 1 V76] (puzzle: Exclusion 1) | – | – | – | 0.0468 | – | –
AAACCCUGAGGAUAUACAUAACAACAAAGCCUCACGUGCCAACAUGAGGAUCACCCAUGUAGAAGGCAGGCCAA [Isananra] (puzzle: Exclusion 2) | – | – | – | 0.0126 | – | –
UCAUGUUUAGAGGAUAUGAUUACUUUUGAGUAAUCAGAAGGCUAGACAUGAGGAUCACCCAUGUCAUAACAUGA [Exclusion 6 - B - 15:d] (puzzle: Exclusion 6) | – | – | – | 0.0715 | – | –
GAGUGCUGAGGAUAUACAUGAGGAUCACCCAUGUGCUUCAGCUAGGAGACUAGCUUUGGUAGAAGGCAGUACUC [Mod of lroppy 23 - Jieux - Exclusion 3] (Eterna round: R97, puzzle: Exclusion 3) | 0.0494 | – | 0.0142 | – | – | –
AAGAAACAUGAGGAUCACCCAUGUGAGGAUAUGAAAAAGAAAAGAAAAGAAAGAAGAAUCAGAAGGCACAAAGG [salish99-ex1_r3_019] (puzzle: Exclusion 1) | – | – | – | 0.0307 | 0.0405 | 0.034
UGAGUGCUGCGAGGAUAUACAUGAGGAUCACCCAUGUGGUCCUGUGAGGCAAAGCCUCACAGGAUGUAGAAGGCGCAGUACUCU [Mat - Exclusion NG 2 - Mod of JL - D45] (Eterna round: R96, puzzle: Exclusion NG 2) | 0.0952 | 0.0137 | 0.0225 | – | – | –
AAACGGCGGAUCGUGGCUUUUUGCUCGUCUUGUGCUUCGACAUGAGGAUCACCCAUGUGGUGGUGAUCCGUUGUAAA [Grok-var2-16 mod JAL] (Eterna round: R96, puzzle: Sensor v3, turn-off variant 2) | 0.537 | 0.0124 | 0.084 | – | – | –
GGACGGAAAGUGAGGAUAUGCUCUACCUCGGUAGAGCAGAAGGCACAUGAGGAUCACCCAUGUGAAAACUGUUC [Omei Ex4B B30] (Eterna round: R97, puzzle: Brourd's mod of Exclusion 4) | 0.0279 | – | 0.0152 | – | – | –
GAUUAUGCGAGCUUUAGGGACAUGAGGAUCACCCAUGUUCGUCUUAUUAGUCUGGGUGCACUGACAUACCUAAAUCU [JMF 93] (puzzle: Sensor v3, turn-off variant 1) | – | – | – | 0.202 | 0.169 | 0.32
GUCAGCUCGUGAGGAUAUACAUCACUGCUUCGGCAGUGUAUUAAGAUCACAUGAGGAUCACCCAUGUAGAAGGCACGAGCUGAC [ENG2/2-A1] (Eterna round: R96, puzzle: Exclusion NG 2) | 0.309 | 0.034 | 0.0296 | – | – | –

Sequence | apparent KD of MS2 coat protein (input ligand: FMN 200 uM) [µM] | apparent KD of MS2 coat protein [1] [µM] | apparent KD of MS2 coat protein (input ligand: none) [µM] | apparent KD of MS2 coat protein [2] [µM] | apparent KD of MS2 coat protein [3] [µM] | apparent KD of MS2 coat protein [4] [µM]
AGUCGUAAACAAGUUUCUGACAUGAGGAUCACCCAUGUGAGACUAAAAGUAUCAGAUUGCCUAAUAAGUAGCUCGUC [Eternabot (L2) Solution 29] (Eterna round: R97, puzzle: Sensor, turn-off variant 1) | 0.0206 | – | 0.0235 | – | – | –
GCACGGAUGGUAGGAUAUCCUUGCGAUUAGCAAGGAGAAGGACCACAUGAGGAUCACCCAUGUACCUCAAUUAUCCUUCCGUGC [Eli exng1 - 023] (Eterna round: R96, puzzle: Exclusion NG 1) | 0.0127 | 0.00918 | 0.0158 | – | – | –
UUGUUAUAUGAAGGAUAUACUUAACAUGAGGAUCACCCAUGUGGUGUUGUGAGUGAGUGAGUUUAGUAGAAGGUCAAUUAUUUU [JMF's solution 29] (Eterna round: R96, puzzle: Exclusion NG 2) | 1.34 | 0.38 | 0.492 | – | – | –
ACUGGUCGAGGAUAUACGAUCGUGCUUCGGCACGUAAGAUCACAUGAGGAUCACCCAUGUAGAAGGCGACCAGU [Mod 4 - Jieux - Exclusion 2] (Eterna round: R97, puzzle: Exclusion 2) | 0.246 | – | 0.0353 | – | – | –
AUUGUUUAUGUAGGAUAUGCCUGGCGUGCCUUUGCAGAAGGACAUGAGGAUCACCCAUGUAUUGCGGUCUGCGUUCAGAUCGCC [salish99_ExNG1_r4_035] (Eterna round: R96, puzzle: Exclusion NG 1) | 0.0276 | 0.0167 | 0.0241 | – | – | –
GACUAAAUUUUGUUUGGUUACAUGAGGAUCACCCAUGUUGGUCUAAGAACAUGUCUUUUGUACGCUUGUCUUAUAUA [JR_SV3TOV1_Sub068] (puzzle: Sensor v3, turn-off variant 1) | – | – | – | 0.0458 | 0.0766 | 0.0963
UUAUUGGUUGUGAGGAUAUCGGAUAGAUAGAUAUUCGAGAAGGCACAUGAGGAUCACCCAUGUGUGAUUGGAAA [JR_BMEx4_Sub047] (Eterna round: R97, puzzle: Brourd's mod of Exclusion 4) | 0.276 | – | 0.0279 | – | – | –
AGUUGGGAAGGAUAUACAUGAGGAUCACCCAUGUGAAAUUAUAGUGAGGAAAUGAAAAGUAGAAGGUCCUGACA [Mod of Mat 4 - Jieux - Exclusion 3] (Eterna round: R97, puzzle: Exclusion 3) | 0.147 | – | 0.0358 | – | – | –
GCGGAGUCGAUCGUGAGAUCGGAGACAUGAGGAUCACCCAUGUAGGAUAUCGAUUGCUUUGCAGUCGAGAAGGGCGUGCUCCGC [JL denovo 18] (Eterna round: R96, puzzle: Exclusion NG 3) | 0.0199 | 0.0186 | 0.0229 | – | – | –
UUUUAACAUGAGGAUCACCCAUGUGAGGAUAUCGAAAUUUAUAUUAAUAUUAAUUUUACGAGAAGGCACAUUUU [JMF 34] (puzzle: Exclusion 1) | – | – | – | 0.0946 | – | –
GAAAAACAUGAGGAUCACCCAUGUAAGGAUAUGCUGAAAAACACGGAAAAAACGUGCAGCAGAAGGUACAAAAG [Mat - Exclusion 1 - Eli mod - D91] (Eterna round: R96, puzzle: Exclusion 1) | 0.107 | 0.0448 | 0.0711 | – | – | –
AACAACUCUGUGAGGAUAUGCAAUUGUUGAUCAAGGCAGAAGGCACAUGAGGAUCACCCAUGUUCCUACAAGGG [Reatanan] (puzzle: Brourd's mod of Exclusion 4) | – | – | – | 0.0465 | – | –
CCUUAGUCACAGGAUAUGCUCAUCUAAUGAUGAGCAGAAGGGUGAACAUGAGGAUCACCCAUGUUUAUCAAGGG [Omei Ex6 E3] (Eterna round: R97, puzzle: Exclusion 6) | 0.3 | – | 0.274 | – | – | –
ACGGCUGAAGGAUAUGCAGUGACCACAAAGGUAUGACUAUCACAUGAGGAUCACCCAUGUAGAAGGUCGGCGCC [Eternabot (L2) Solution 29] (Eterna round: R97, puzzle: Exclusion 2) | 0.0136 | – | 0.0144 | – | – | –
UUUCAUCAUGUAGGAUAUGCGUGGCGAAGCUAUGCAGAAGGACAUGAGGAUCACCCAUGUUCUUGCGUCUGCGUACAGAUGCAA [JL ENG1 1.34] (Eterna round: R96, puzzle: Exclusion NG 1) | 0.267 | 0.0355 | 0.043 | – | – | –
AGAGUGGUGCGAGGAUAUACAUGAGGAUCACCCAUGUAAACGUGUGAGGCAAAGCCUCACACGAUGUAGAAGGCGCACUACUCA [Mat - Exclusion NG 2 - Mod of JL - D15] (Eterna round: R96, puzzle: Exclusion NG 2) | 0.0173 | 0.0099 | 0.0158 | – | – | –

Source: the supplement of paper PMC9170038
